In the RNAGym collection of RNA variant scans (doi:10.1073/pnas.2313332121):

B1: TPR t1 (parent)
chain: GACCAAUCUGCCCUCAGAGCUCGAGAACAUCUUCGGAUGCAGAGGAGGCAGGCUUCGGUGGCGCGAUAGCGCCAACGUCCUCAACCUCCAAUGCAUCCCACCACAUGAUGAUGCCUGAAGAGCCUUGGUUUUUUG

Variants of: B1
Test: polymerase ribozyme fitness, log enrichment relative to wild type (log ratio); higher = more active; in vitro selection for triplet polymerase activity
Summary of the method: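 Each subunit of a heterodimeric triplet polymerase ribozyme was represented by a PCR-built, transcribed mutant library that underwent triplicate single-round in vitro selection with frozen incubation at −7 °C. Extended constructs were recovered by gel excision, streptavidin-bead capture and RT-PCR, and Illumina sequencing of input and output libraries kept genotypes with ≥10 input reads and ≥1 read per output. Fitness is the logarithm of genotype enrichment relative to wild-type enrichment, from inverse-variance-weighted replicate averages, with a logarithm base of 2.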

| Variant | polymerase ribozyme fitness (log ratio) |
| --- | --- |
| GACCAAUCUGCCCUCAGAGCUCGAGAACAUCUUCGGAUGCAGAGGAGGCAGGCUUCGGUGGCGCGAUAGCGCAAACGCCCUCAACCUCCAAUGUAUCCCACCACAUGAUGAUGCCUGAAGAGCCUUGGUUUUUUG | -0.492 |
| GACCAAUCUGCCCUCAGAGCUCGAGAACAUCUUCGGAUGCAGAGGAGGCAGGCUUCGGUGGCGCGAUAGCGCAAACGUCCUCAACCUCCAAUGCAUCCCACCACAUGAUGAUCCCUGAAGAGCCUUGGUUUUUUG | -2.27 |
| GACCAAUCUGCCCUCAGAGCUCGAGAACAUCUUCGGAUGCAGAGGAGGCAGGCUUCGGUGGCGCGAUAGCGCAAACGUCCUCAACCUCCAAUGCAUCCCACCAUAUGAUGAUGCCUGAAGAGCCUUGGUGUCUUG | 1.03 |
| GACCAAUCUGCCCUCAGAGCUCGAGAACAUCUUCGGAUGCAGAGGAGGCAGGCUUCGGUGGCGCGAUAGCGCAAACGUCCUCAACCUCCAAUGCAUCCCACCACAUGAUGAUGCCUUAAGAGCCUUGGUUUUUUG | -2.74 |
| GACCAAUCUGCCCUCAGAGCUCGAGAACAUCUUCGGAUGCAGAGGAGGCAGGCUUCGGUGGCGCGAUAGCGCGAACGUCCUCAACCUCCAAUGCAUCCCACCACAUGAUGAUACCUGAAGAGCCUUGGUUUUUUG | -1.29 |
| GACCAAUCUGCCCUCAGAGCUCGAGAACAUCUUCGGAUGCAGAGGAGGCAGGCUUCGGUGGCGCGAUAGCGCGAACGUCCUCAACCUCCAAUGCAUCCCACCAAAUGAUGAUGCCUGAAGAGCCUUGGUUUUUUG | -1.94 |
| GACCAAUCUGCCCUCAGAGCUCGAGAACAUCUUCGGAUGCAGAGGAGGCAGGCUUCGGUGGCGCGAUAGCGCAAACGUCCUCAACCUCCAAUGCAUCCCACCACAUGAUGAUGCCUGAAGAGGCUUGGUUUUUUG | 1.74 |
| GACCAAUCUGCCCUCAGAGCUCGAGAACAUCUUCGGAUGCAGAGGAGGCAGGCUUCGGUGGCGCGAUAGCGCAAACGUCCUCAACCUCCAAUGCAUCCCACCACAUGAUGAUGCCUGAAGAGACUUGGUUUUUUG | 1.63 |
| GACCAAUCUGCCCUCAGAGCUCGAGAACAUCUUCGGAUGCAGAGGAGGCAGGCUUCGGUGGCGCGAUAGCGCAAACGUCCUCAACCUCCAAUGCAUCCCACCACAUGAUGAUGCCUGAAGAGCCUUGCUUUUUUG | -2.05 |
| GACCAAUCUGCCCUCAGAGCUCGAGAACAUCUUCGGAUGCAGAGGAGGCAGGCUUCGGUGGCGCGAUAGCGCAAACGUCCUCAACCUCCAAUGCAUCCCACCACAUGAUGAUGACUGAAGAGCCUUGGUUUUUUG | -1.84 |
| GACCAAUCUGCCCUCAGAGCUCGAGAACAUCUUCGGAUGCAGAGGAGGCAGGCUUCGGUGGCGCGAUAGCGCAAACGUCCUCAACCUCCAAUGCAUCCCACCACAGGAUCAUGCCUGAAGAGCCUUGGUUUUUUG | -4.6 |
| GACCAAUCUGCCCUCAGAGCUCGAGAACAUCUUCGGAUGCAGAGGAGGCAGGCUUCGGUGGCGCGAUAGCGCAAACGUCCUCAACCUCCAAUGCAUCCUACCACAUGAUGAUGCCUGAUGAGCCUUGGUAUUUUG | -4.24 |
| GACCAAUCUGCCCUCAGAGCUCGAGAACAUCUUCGGAUGCAGAGGAGGCAGGCUUCGGUGGCGCGAUAGCGCAAACGUCCUCAACCUGCAAUGCAUCCCACCACAUGAUGUUGCCUGAAGAGCCUUGGGUUUUUG | -5.91 |
| GACCAAUCUGCCCUCAGAGCUCGAGAACAUCUUCGGAUGCAGAGGAGGCAGGCUUCGGUGGCGCGAUAGCGCAAACGUCCUCAACCGCCAAUGCAUCCCACCACAUGAUGAUGCCUGAAGAGCCUUGGUUUUUUG | -0.467 |
| GACCAAUCUGCCCUCAGAGCUCGAGAACAUCUUCGGAUGCAGAGGAGGCAGGCUUCGGUGGCGCGAUAGCGCGAACGUCCUCAACCUCCAAUGCAUCCCACCACAUGAUGAUGCCUGAAGCGCCUUGGUUUUUUG | 1.42 |
| GACCAAUCUGCCCUCAGAGCUCGAGAACAUCUUCGGAUGCAGAGGAGGCAGGCUUCGGUGGCGCGAUAGCGCGAACGUCCUCAACUUCCAAUGCAUCCCACCACAUGAUGAUGCCUGAAGAGCCUUGGUUUUUUG | -1.29 |
| GACCAAUCUGCCCUCAGAGCUCGAGAACAUCUUCGGAUGCAGAGGAGGCAGGCUUCGGUGGCGCGAUAGCGCGAACGUCCUCAACGUCCAAUGCAUCCCACCACAUGAUGAUGCCUGAAGAGCCUUGGUUUUUUG | -2.52 |
| GACCAAUCUGCCCUCAGAGCUCGAGAACAUCUUCGGAUGCAGAGGAGGCAGGCUUCGGUGGCGCGAUAGCGCGAACGUCCUCAACCUCCAAUGCAUCCCACCACAUGAUGAUGCCUGAUGAGCCUUGGUUUCUUG | -1.94 |
| GACCAAUCUGCCCUCAGAGCUCGAGAACAUCUUCGGAUGCAGAGGAGGCAGGCUUCGGUGGCGCGAUAGCGCAAACGUCCUCAACUUCCAAUGCAUCCCUCAACAUGAUGAUGCCUGAAGAGCCUUGGUUUUUUG | -2.87 |
| GACCAAUCUGCCCUCAGAGCUCGAGAACAUCUUCGGAUGCAGAGGAGGCAGGCUUCGGUGGCGCGAUAGCGCGAACGUCCUCAACCUCCAAUGAAUCCCACUACAUGAUGAUGCCUGAAGAGCCUUGGUUUUUUG | -3.82 |
| GACCAAUCUGCCCUCAGAGCUCGAGAACAUCUUCGGAUGCAGAGGAGGCAGGCUUCGGUGGCGCGAUAGCGCGAACGUCCUCAACCUCCAAUGCAUCCCACCACAUGAUGAUGCGUGAAGAGCCUUGGUUUUUUG | -0.331 |

| Variant | polymerase ribozyme fitness (log ratio) |
| --- | --- |
| GACCAAUCUGCCCUCAGAGCUCGAGAACAUCUUCGGAUGCAGAGGAGGCAGGCUUCGGUGGCGCGAUAGCGCGAACGUCCUCAACCUCCAAUGCAUCCCACCACAUGAUGAUGCUUGAAGAGCCUUGGUUUUUUG | -1.97 |
| GACCAAUCUGCCCUCAGAGCUCGAGAACAUCUUCGGAUGCAGAGGAGGCAGGCUUCGGUGGCGCGAUAGCGCAAACGUCCUCAACCUCCAAUGCAUCCCACCACAUGAUGAUGCCUGAAGAGCCUAGGUUUUUUG | -1.73 |
| GACCAAUCUGCCCUCAGAGCUCGAGAACAUCUUCGGAUGCAGAGGAGGCAGGCUUCGGUGGCGCGAUAGCGCAAACGUCCUCAACCUCCAAUGCAUCCCACCACAUGAUGAUGCCUGAAGAGCGUUGGUUUUUUG | 0.687 |
| GACCAAUCUGCCCUCAGAGCUCGAGAACAUCUUCGGAUGCAGAGGAGGCAGGCUUCGGUGGCGCGAUAGCGCGAACGUCCUCAAUCUCCAAUUCGUCCCACCACAUGAUGAUGCCUGAAGAGACUUGGUUUUUUG | -3.28 |
| GACCAAUCUGCCCUCAGAGCUCGAGAACAUCUUCGGAUGCAGAGGAGGCAGGCUUCGGUGGCGCGAUAGCGCGAACGUCCUCAACCUCCAAUGCAUCCCACAACAUGAUGAUGCCUGAAGAGCCUUGGUUUUUUG | -2.76 |
| GACCAAUCUGCCCUCAGAGCUCGAGAACAUCUUCGGAUGCAGAGGAGGCAGGCUUCGGUGGCGCGAUAGCGCGAACGUCCUCAACCUCCAAUGCAUCCCACCACAUGAUGAUGCCUAAAGAGCAUUGGUUUUUUG | 0.864 |
| GACCAAUCUGCCCUCAGAGCUCGAGAACAUCUUCGGAUGCAGAGGAGGCAGGCUUCGGUGGCGCGAUAGCGCGAACGUCCUCAACCUCCAAUGCAUCCCAUCACAUGAUGAUGCCUGAAGAGCCUUGGUUUUAUG | -1.03 |
| GACCAAUCUGCCCUCAGAGCUCGAGAACAUCUUCGGAUGCAGAGGAGGCAGGCUUCGGUGGCGCGAUAGCGCAAACGUCCUCAACCUCCAAUGCAUCCCACUACAUGAUGAUGCCUGAAGAGCCUUGCUUUUUUG | -3.88 |
| GACCAAUCUGCCCUCAGAGCUCGAGAACAUCUUCGGAUGCAGAGGAGGCAGGCUUCGGUGGCGCGAUAGCGCAAACGUCCUCAACUUCCAAUGCAUCCCACCACAUGAUGAUGCCUGAAGAGCAUUGGUUUUUUG | 1.85 |
| GACCAAUCUGCCCUCAGAGCUCGAGAACAUCUUCGGAUGCAGAGGAGGCAGGCUUCGGUGGCGCGAUAGCGCAAACGUCCUCAACCUCCAAUGCAUCCCACCACAUGAUGAUGCCUGAAGAGCCUUGGCUUUUUG | -0.459 |
| GACCAAUCUGCCCUCAGAGCUCGAGAACAUCUUCGGAUGCAGAGGAGGCAGGCUUCGGUGGCGCGAUAGCGCGAACGUCCUCAACCUCCAAUGCAUCCCACCCCAUGAUGAUGCCUGAAGAGCCUUGGUUUUUUG | -4.89 |
| GACCAAUCUGCCCUCAGAGCUCGAGAACAUCUUCGGAUGCAGAGGAGGCAGGCUUCGGUGGCGCGAUAGCGCAAACGUCCUCAACCUCCAAUGCAUCCCACCACAUGAUGAUGCCUGAAGAGACUUGGUUUUUUC | 0.5 |
| GACCAAUCUGCCCUCAGAGCUCGAGAACAUCUUCGGAUGCAGAGGAGGCAGGCUUCGGUGGCGCGAUAGCGCGAACGUCCUCAACCUCCAAUGCAUCCCAUCACAUGAUGAUGCCUGAAGAGCCUUGGUUUUUUG | -0.446 |
| GACCAAUCUGCCCUCAGAGCUCGAGAACAUCUUCGGAUGCAGAGGAGGCAGGCUUCGGUGGCGCGAUAGCGCAAACGUCCUCAACCUCCAAUGCAUCCCACCAAAUGAUGAUGCCUGAAGAGCCUUGGUUUUUUG | -1.07 |
| GACCAAUCUGCCCUCAGAGCUCGAGAACAUCUUCGGAUGCAGAGGAGGCAGGCUUCGGUGGCGCGAUAGCGCGAACGUCCUCAACCUCCAAUGCAUCCCACCACAUGAUGAUGCCUGAAAAGCCUUGGUUUUUUG | -0.212 |
| GACCAAUCUGCCCUCAGAGCUCGAGAACAUCUUCGGAUGCAGAGGAGGCAGGCUUCGGUGGCGCGAUAGCGCAAACGUCCUCAACCACCAAUGCAUCCCACCACAUGAUGAUGCCUGAACAGCAUUGGUUUGUUG | -4.42 |
| GACCAAUCUGCCCUCAGAGCUCGAGAACAUCUUCGGAUGCAGAGGAGGCAGGCUUCGGUGGCGCGAUAGCGCAAACGUCCUCAACUUCCAAUGCAUCCCACCACAUGAUGAUGCCUGAAGAGCCUUGAUUUUUUG | -1.81 |
| GACCAAUCUGCCCUCAGAGCUCGAGAACAUCUUCGGAUGCAGAGGAGGCAGGCUUCGGUGGCGCGAUAGCGCGAACGUCCUCAACCUCCAAUGCAUCCCACCACAUGAUAAUGCCUGAAGAGCCUUGGUUUUUUG | -1.17 |
| GACCAAUCUGCCCUCAGAGCUCGAGAACAUCUUCGGAUGCAGAGGAGGCAGGCUUCGGUGGCGCGAUAGCGCGAACGUCCUCUACCUGCAAUGCAUCCCACCACAUGAUGAUGCCUGAAGAGCCUUGGUAUUUUG | -3.2 |
| GACCAAUCUGCCCUCAGAGCUCGAGAACAUCUUCGGAUGCAGAGGAGGCAGGCUUCGGUGGCGCGAUAGCGCGAACGUCCUCAACCUCCGAUGCAUCCCACCAUAUGAUGACGCCUGAAGUGCCUUGGUCUUUUG | 1.89 |
| GACCAAUCUGCCCUCAGAGCUCGAGAACAUCUUCGGAUGCAGAGGAGGCAGGCUUCGGUGGCGCGAUAGCGCGAACGUCCUCAACCUCCAAUGCAUCCCACCACAUGAUGAUGCCUGAAGAGCAUUGGUUUUUUG | 1.65 |
